According to patent US20220204602A1 (University of Pennsylvania, published 2022):

B1: anti-C5 mAb FMEH-IgG4PLA (antibody)
heavy: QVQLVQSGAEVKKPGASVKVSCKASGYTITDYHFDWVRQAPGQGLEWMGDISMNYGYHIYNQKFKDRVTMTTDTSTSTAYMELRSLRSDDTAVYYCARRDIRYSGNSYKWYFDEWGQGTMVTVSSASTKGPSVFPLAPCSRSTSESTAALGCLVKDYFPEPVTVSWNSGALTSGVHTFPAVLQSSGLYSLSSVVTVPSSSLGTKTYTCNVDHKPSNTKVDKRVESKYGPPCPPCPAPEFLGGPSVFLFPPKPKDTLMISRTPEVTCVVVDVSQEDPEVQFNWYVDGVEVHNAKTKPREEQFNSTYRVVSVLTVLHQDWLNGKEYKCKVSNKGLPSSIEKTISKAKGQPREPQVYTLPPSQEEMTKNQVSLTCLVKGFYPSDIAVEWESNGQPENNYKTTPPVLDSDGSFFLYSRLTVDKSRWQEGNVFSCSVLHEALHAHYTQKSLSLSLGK
light: DIQLTQSPSFLSASVGDRVTITCRTSKSISKHLAWYQQKPGKAPKLLIYSGSTLQSGVPSRFSGSGSGTEFTLTISSLQPEDFATYYCQQHNEYPYTFGQGTKLEIK
notes: also called FMEH PLA; FMEH-PLA; not shown: human light chain constant region
B2: Cyno FcRn (receptor, Cynomolgus)
chain 1: AESHLSLLYHLTAVSSPAPGTPAFWVSGWLGPQQYLSYDSLRGQAEPCGAWVWENQVSWYWEKETTDLRIKEKLFLEAFKALGGKGPYTLQGLLGCELSPDNTSVPTAKFALNGEEFMNFDLKQGTWGGDWPEALAISQRWQQQDKAANKELTFLLFSCPHRLREHLERGRGNLEWKEPPSMRLKARPGNPGFSVLTCSAFSFYPPELQLRFLRNGMAAGTGQGDFGPNSDGSFHASSSLTVKSGDEHHYCCIVQHAGLAQPLRVELETPAKSS
chain 2: IQRTPKIQVYSRHPPENGKPNFLNCYVSGFHPSDIEVDLLKNGEKMGKVEHSDLSFSKDWSFYLLYYTEFTPNEKDEYACRVNHVTLSGPRTVKWDRDM
notes: also called Cynomolgus FcRn; purified Cyno FcRn

Key:
[1] = biological target: T1, human FcRn (human, UniProt P55899 24-297; P61769 21-119, limits assumed); assay: SPR (Biacore-3000), human FcRn amine-coupled on CM5 chip (280 RU), antibody as analyte, pH 6.0, bivalent binding model
T1 construct: also called purified human FcRn
T1 sequence (P61769 21-119 limits assumed, form in doubt, one chain of several): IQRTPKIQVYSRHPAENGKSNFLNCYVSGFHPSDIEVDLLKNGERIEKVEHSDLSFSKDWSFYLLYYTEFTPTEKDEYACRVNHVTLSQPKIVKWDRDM
Method: Biacore analysis was performed on a Biacore-3000 instrument. The chip was regenerated between each binding using 7.4 pH Buffer.
The carboxylated dextran matrix of a CM5 sensor chip was used to couple the purified human or Cyno FcRn, by amine coupling chemistry to obtain 280 RU or 200 RU surface density, respectively. […] The data were analyzed by the BIA evaluation software 3.2 assuming bivalent binding model.

[2] = biological target: B2; assay: SPR (Biacore-3000), Cyno FcRn amine-coupled on CM5 chip (200 RU), antibody as analyte, pH 6.0, bivalent binding model
Method: Purified Cyno FcRn was coupled onto CM5 chip using the amine coupling method(200RU). Biacore analysis was performed on a Biacore-3000 instrument. The chip was regenerated between each binding using 7.4 pH Buffer.
Affinity analysis of FMEH-IgG4PLA and FMEH-IgG4PLA-FH1-5 to human or Cynomolgus FcRn: Surface Plasmon resonance analysis was used to measure the association and dissociation rate constant for binding of FMEH-IgG4PLA and FMEH-IgG4PLA-FH1-5 to immobilized human or Cyno FcRn, using BIAcore 3000 instrument (Biacore AB, Uppsala, Sweden) and all Biacore experiments were performed at 25° C. The carboxylated dextran matrix of a CM5 sensor chip was used to couple the purified human or Cyno FcRn, by amine coupling chemistry to obtain 280 RU or 200 RU surface density, respectively. […] The data were analyzed by the BIA evaluation software 3.2 assuming bivalent binding model.

[3] = biological target: T2, anti-C5 mAb/FH SCR1-5 fusion protein FMEH-IgG4PLA-FH1-5 (human, UniProt P08603 19-322, limits assumed); assay: SPR (Biacore-3000), Cyno FcRn amine-coupled on CM5 chip (200 RU), fusion protein as analyte, pH 6.0, bivalent binding model
T2 construct: domain: SCR 1-5; also called FMEH-FH1-5; FMEH-IgG4PLA-FH SCR1-5; not shown: human light chain constant region
T2 sequence (P08603 other isoform, or with tags, fused parts or gaps limits assumed): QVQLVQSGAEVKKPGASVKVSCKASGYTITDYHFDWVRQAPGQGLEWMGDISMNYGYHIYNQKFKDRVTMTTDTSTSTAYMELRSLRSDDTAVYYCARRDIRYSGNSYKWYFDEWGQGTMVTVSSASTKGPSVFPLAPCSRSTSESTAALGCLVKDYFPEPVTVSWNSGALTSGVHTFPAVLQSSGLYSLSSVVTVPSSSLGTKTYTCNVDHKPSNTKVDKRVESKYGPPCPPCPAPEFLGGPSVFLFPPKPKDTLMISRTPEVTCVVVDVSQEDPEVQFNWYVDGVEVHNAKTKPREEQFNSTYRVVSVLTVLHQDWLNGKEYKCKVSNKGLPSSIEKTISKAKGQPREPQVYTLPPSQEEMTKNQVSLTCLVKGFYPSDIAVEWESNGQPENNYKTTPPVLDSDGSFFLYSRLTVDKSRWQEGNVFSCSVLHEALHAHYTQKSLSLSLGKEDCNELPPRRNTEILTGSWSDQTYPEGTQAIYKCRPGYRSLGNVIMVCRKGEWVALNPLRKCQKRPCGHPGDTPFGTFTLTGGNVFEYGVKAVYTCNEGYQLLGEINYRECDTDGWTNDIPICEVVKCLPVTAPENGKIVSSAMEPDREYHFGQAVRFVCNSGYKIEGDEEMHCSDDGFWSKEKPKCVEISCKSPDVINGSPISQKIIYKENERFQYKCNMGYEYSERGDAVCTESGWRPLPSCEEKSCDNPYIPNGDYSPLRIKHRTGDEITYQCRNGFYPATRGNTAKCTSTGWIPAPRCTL

Row | Binder | Kd [1] [nM] | Kd [2] [nM] | Kd [3] [nM]
1 | B1 | 6.47 | 14 | –
2 | B2 | – | – | 39.1
